The target in test [1] is T1, recombinant human γD-crystallin (human), P07320.
T1 chain: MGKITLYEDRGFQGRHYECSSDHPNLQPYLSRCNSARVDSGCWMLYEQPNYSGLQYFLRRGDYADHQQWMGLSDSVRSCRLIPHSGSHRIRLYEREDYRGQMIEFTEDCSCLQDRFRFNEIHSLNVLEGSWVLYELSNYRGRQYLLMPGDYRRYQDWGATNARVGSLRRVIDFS
Kind of test: reducing SDS-PAGE; 1 mg/ml HGDC in 5 mM sodium phosphate pH 7.0, UV-C irradiated (254 nm, 1,850 μW/cm^2) for 10-60 min; 15% gel, sample buffer with β-mercaptoethanol; band intensities by Image-J. Conditions: remark: other sources report otherwise.

The target of test [2] is T1, recombinant human γD-crystallin …. Kind of test: non-reducing SDS-PAGE; 1 mg/ml HGDC in 5 mM sodium phosphate pH 7.0, UV-C irradiated (254 nm, 1,850 μW/cm^2) for 10-60 min; 15% gel, sample buffer without β-mercaptoethanol; band intensities by Image-J. Conditions: remark: other sources report otherwise.

B1: recombinant human γD-crystallin, P07320 1-174 (natural protein)
chain: MGKITLYEDRGFQGRHYECSSDHPNLQPYLSRCNSARVDSGCWMLYEQPNYSGLQYFLRRGDYADHQQWMGLSDSVRSCRLIPHSGSHRIRLYEREDYRGQMIEFTEDCSCLQDRFRFNEIHSLNVLEGSWVLYELSNYRGRQYLLMPGDYRRYQDWGATNARVGSLRRVIDFS
Take B1: in test [1], the HGDC polymerization (%) with β-ME, 10 min UV-C was 6.66%; the HGDC polymerization (%) with β-ME, 20 min UV-C was 15%; the HGDC polymerization (%) with β-ME, 30 min UV-C came out at 25.4%; the HGDC polymerization (%) with β-ME, 40 min UV-C was determined as 29.8%. In test [1], the HGDC polymerization (%) with β-ME, 50 min UV-C worked out at 30.1% and the HGDC polymerization (%) with β-ME, 60 min UV-C amounted to 31.5%. In test [2], the HGDC polymerization (%) without β-ME, 10 min UV-C worked out at 7.31%; the HGDC polymerization (%) without β-ME, 20 min UV-C was 17.6%; the HGDC polymerization (%) without β-ME, 30 min UV-C amounted to 30.6%; the HGDC polymerization (%) without β-ME, 40 min UV-C was found to be 42%. Also, in test [2], the HGDC polymerization (%) without β-ME, 50 min UV-C was determined as 51.3% and the HGDC polymerization (%) without β-ME, 60 min UV-C worked out at 53.6%.

(Values after article PMC3008712.)
